{"source": "patent US20110098212A1", "experiment_in_all_cases": "cell-based or functional assay", "key": {"[1]": {"target": "chemokine receptor CCR2 (human) (UniProt P41597)"}, "[2]": {"target": "chemokine receptor CCR4 (human) (UniProt P51679)"}, "[3]": {"target": "chemokine receptor CCR6 (human) (UniProt P51684)"}, "[4]": {"target": "human chemokine receptor CCR5 (human) (UniProt P51681)"}, "[5]": {"target": "chemokine receptor CCR8 (human) (UniProt P51685)"}}, "data": [{"substance": "CCL2/MCP-1 (from UniProt P13500 24-99) (ligand)", "values": [{"measurement": "calcium mobilisation, share of THP-1 cells responding", "setting": "[1]", "value": "> 95", "unit": "%"}]}, {"substance": "GSRIEGR-U83A (from UniProt P52460 5-97) (ligand)", "values": [{"measurement": "blocking of CCL22 (10 nM) induced chemotaxis of HUT78 cells by 100 nM pre-treatment", "setting": "[2]", "value": 25, "unit": "%"}]}, {"substance": "CCL17/TARC (from UniProt Q92583 24-94) (ligand)", "values": [{"measurement": "EC50, calcium mobilisation in CCR4-CHO cells", "setting": "[2]", "value": 0.24, "unit": "nM"}, {"measurement": "chemotaxis of HUT78 cells, concentration of maximal efficacy", "setting": "[2]", "value": 1, "unit": "nM"}]}, {"substance": "CCL20/MIP-3alpha (from UniProt P78556 27-96) (ligand)", "values": [{"measurement": "EC50, calcium mobilisation in CCR6-CHO cells", "setting": "[3]", "value": 1.27, "unit": "nM"}]}, {"substance": "GS-U83A (from UniProt P52460 5-97) (ligand)", "values": [{"measurement": "reduction of HIV-1 JRCSF infection of CEM-NKR-CCR5-luc cells at 1 uM", "setting": "[4]", "value": 93, "unit": "%"}, {"measurement": "blocking of CCL1 (1 nM) induced chemotaxis of HUT78 cells by 100 nM pre-treatment", "setting": "[5]", "value": 10, "unit": "%"}]}]}
